Results reported in publication PMC9482650, “Quantitative fragmentomics allow affinity mapping of interactomes” (Nature Communications, 2022).

T1: TX1BP3, O14907
T1 sequence (O14907 10-122, limits assumed, looked up): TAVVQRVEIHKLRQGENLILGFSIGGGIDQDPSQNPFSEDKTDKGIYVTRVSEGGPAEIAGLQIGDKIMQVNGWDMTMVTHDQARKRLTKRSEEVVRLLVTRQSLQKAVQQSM

T2: GRIP1_3, Q9Y3R0
T2 sequence (Q9Y3R0 247-346, limits assumed, looked up): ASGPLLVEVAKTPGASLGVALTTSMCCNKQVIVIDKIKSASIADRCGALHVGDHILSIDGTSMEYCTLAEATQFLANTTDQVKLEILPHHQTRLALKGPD

T3: GRIP1_5, Q9Y3R0
T3 sequence (Q9Y3R0 568-668, limits assumed, looked up): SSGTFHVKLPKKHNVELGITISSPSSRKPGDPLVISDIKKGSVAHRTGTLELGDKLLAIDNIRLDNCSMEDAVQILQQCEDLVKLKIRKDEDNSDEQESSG

T4: SNTB1, Q13884
T4 sequence (Q13884 107-205, limits assumed, looked up): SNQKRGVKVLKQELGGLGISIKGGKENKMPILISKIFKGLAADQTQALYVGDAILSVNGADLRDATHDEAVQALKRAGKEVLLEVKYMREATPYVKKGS

T5: RADIL, Q96JH8
T5 sequence (Q96JH8 971-1071, limits assumed, looked up): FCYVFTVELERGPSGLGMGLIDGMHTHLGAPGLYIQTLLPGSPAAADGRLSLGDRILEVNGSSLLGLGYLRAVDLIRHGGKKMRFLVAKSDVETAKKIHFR

T6: APBA2_2, Q99767
T6 sequence (Q99767 654-744, limits assumed, looked up): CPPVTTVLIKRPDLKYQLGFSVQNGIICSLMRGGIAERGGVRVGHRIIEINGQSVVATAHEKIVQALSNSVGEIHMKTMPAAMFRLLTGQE

T7: PDZRN3_1, Q9UPQ7
T7 sequence (Q9UPQ7 244-349, limits assumed, looked up): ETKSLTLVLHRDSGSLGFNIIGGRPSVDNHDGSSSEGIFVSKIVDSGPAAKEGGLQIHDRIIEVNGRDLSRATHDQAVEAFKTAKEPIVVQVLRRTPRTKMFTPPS

B1: JAG1, P78504 (peptide)
chain: QSLNRMEYIV
B2: TMEM151B, Q8IW70 (peptide)
chain: RHGSCVETSL

target: T1, TX1BP3, O14907; experiment: holdup assay; set-up: key: below the threshold = too weak to quantify, mostly under pKd 3.1 to 4; conditions: plain residues with an end cap or a label only (N-terminal biotin on a linker: ado-ado)

pKd	Binder
below the threshold	B1
4.8	B2

target: PDZRN4_1, Q6ZMN7; experiment: holdup assay; set-up: key: below the threshold = too weak to quantify, mostly under pKd 3.1 to 4; conditions: plain residues with an end cap or a label only (N-terminal biotin on a linker: ado-ado)
Sequence (Q6ZMN7 213-318): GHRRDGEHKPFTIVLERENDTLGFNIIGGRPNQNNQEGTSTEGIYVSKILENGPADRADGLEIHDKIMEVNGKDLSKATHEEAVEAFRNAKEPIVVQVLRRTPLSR

pKd	Binder
below the threshold	B1
5.27	B2

target: LNX1_1, Q8TBB1; experiment: holdup assay; set-up: key: below the threshold = too weak to quantify, mostly under pKd 3.1 to 4; conditions: plain residues with an end cap or a label only (N-terminal biotin on a linker: ado-ado)
Sequence (Q8TBB1 261-371): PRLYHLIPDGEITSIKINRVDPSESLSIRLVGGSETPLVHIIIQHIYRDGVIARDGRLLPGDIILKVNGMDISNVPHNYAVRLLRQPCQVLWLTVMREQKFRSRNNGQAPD

pKd	Binder
below the threshold	B1
3.66	B2

target: LNX1_3, Q8TBB1; experiment: holdup assay; set-up: key: below the threshold = too weak to quantify, mostly under pKd 3.1 to 4; conditions: plain residues with an end cap or a label only (N-terminal biotin on a linker: ado-ado)
Sequence (Q8TBB1 500-596): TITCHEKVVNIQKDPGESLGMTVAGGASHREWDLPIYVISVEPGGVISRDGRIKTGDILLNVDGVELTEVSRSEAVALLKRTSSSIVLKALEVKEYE

pKd	Binder
3.96	B1
below the threshold	B2

target: CASK, O14936; experiment: holdup assay; set-up: key: below the threshold = too weak to quantify, mostly under pKd 3.1 to 4; conditions: plain residues with an end cap or a label only (N-terminal biotin on a linker: ado-ado)
Sequence (O14936 487-570): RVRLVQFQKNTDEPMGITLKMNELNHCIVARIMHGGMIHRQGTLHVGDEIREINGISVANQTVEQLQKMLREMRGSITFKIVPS

pKd	Binder
below the threshold	B1
below the threshold	B2

target: SCRIB_2, Q14160; experiment: holdup assay; set-up: key: below the threshold = too weak to quantify, mostly under pKd 3.1 to 4; conditions: plain residues with an end cap or a label only (N-terminal biotin on a linker: ado-ado)
Sequence (Q14160 857-960): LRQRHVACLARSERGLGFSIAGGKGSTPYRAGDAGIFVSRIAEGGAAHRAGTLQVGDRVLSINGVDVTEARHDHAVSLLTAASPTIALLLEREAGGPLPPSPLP

pKd	Binder
below the threshold	B1
4.43	B2

target: Inadl_6, Q8NI35; experiment: holdup assay; set-up: key: below the threshold = too weak to quantify, mostly under pKd 3.1 to 4; conditions: plain residues with an end cap or a label only (N-terminal biotin on a linker: ado-ado)
Sequence (Q8NI35 1058-1167): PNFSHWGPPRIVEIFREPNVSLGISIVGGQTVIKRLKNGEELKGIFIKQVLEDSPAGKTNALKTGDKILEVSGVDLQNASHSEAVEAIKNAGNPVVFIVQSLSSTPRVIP

pKd	Binder
below the threshold	B1
4.31	B2

target: IL16_4, Q14005; experiment: holdup assay; set-up: key: below the threshold = too weak to quantify, mostly under pKd 3.1 to 4; conditions: plain residues with an end cap or a label only (N-terminal biotin on a linker: ado-ado)
Sequence (Q14005 1229-1329): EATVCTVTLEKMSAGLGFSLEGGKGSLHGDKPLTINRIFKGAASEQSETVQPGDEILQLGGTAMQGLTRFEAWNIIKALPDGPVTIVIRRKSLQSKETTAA

pKd	Binder
below the threshold	B1
3.61	B2

target: GORASP1, Q9BQQ3; experiment: holdup assay; set-up: key: below the threshold = too weak to quantify, mostly under pKd 3.1 to 4; conditions: plain residues with an end cap or a label only (N-terminal biotin on a linker: ado-ado)
Sequence (Q9BQQ3 1-208): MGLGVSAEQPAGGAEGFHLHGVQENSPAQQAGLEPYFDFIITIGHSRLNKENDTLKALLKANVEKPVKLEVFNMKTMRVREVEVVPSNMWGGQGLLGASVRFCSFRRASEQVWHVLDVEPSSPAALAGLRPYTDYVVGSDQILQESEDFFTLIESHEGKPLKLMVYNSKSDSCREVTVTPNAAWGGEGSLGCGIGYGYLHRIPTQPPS

pKd	Binder
4.71	B1
below the threshold	B2

target: SCRIB_3, Q14160; experiment: holdup assay; set-up: key: below the threshold = too weak to quantify, mostly under pKd 3.1 to 4; conditions: plain residues with an end cap or a label only (N-terminal biotin on a linker: ado-ado)
Sequence (Q14160 999-1103): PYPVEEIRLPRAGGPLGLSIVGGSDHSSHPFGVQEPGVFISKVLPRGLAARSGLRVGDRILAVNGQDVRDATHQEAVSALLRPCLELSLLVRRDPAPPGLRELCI

pKd	Binder
below the threshold	B1
5.36	B2

target: GRIP2_7, Q9C0E4; experiment: holdup assay; set-up: key: below the threshold = too weak to quantify, mostly under pKd 3.1 to 4; conditions: plain residues with an end cap or a label only (N-terminal biotin on a linker: ado-ado)
Sequence (Q9C0E4 934-1023): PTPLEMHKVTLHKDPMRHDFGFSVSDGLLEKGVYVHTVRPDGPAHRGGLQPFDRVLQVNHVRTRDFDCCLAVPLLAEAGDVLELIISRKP

pKd	Binder
4.33	B1
below the threshold	B2

target: MAGI1_1, Q96QZ7; experiment: holdup assay; set-up: key: below the threshold = too weak to quantify, mostly under pKd 3.1 to 4; conditions: plain residues with an end cap or a label only (N-terminal biotin on a linker: ado-ado)
Sequence (Q96QZ7 1-106): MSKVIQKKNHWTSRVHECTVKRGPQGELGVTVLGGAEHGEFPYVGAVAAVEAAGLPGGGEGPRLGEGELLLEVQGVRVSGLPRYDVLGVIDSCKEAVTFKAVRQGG

pKd	Binder
below the threshold	B1
below the threshold	B2

target: FRMPD4, Q14CM0; experiment: holdup assay; set-up: key: below the threshold = too weak to quantify, mostly under pKd 3.1 to 4; conditions: plain residues with an end cap or a label only (N-terminal biotin on a linker: ado-ado)
Sequence (Q14CM0 67-160): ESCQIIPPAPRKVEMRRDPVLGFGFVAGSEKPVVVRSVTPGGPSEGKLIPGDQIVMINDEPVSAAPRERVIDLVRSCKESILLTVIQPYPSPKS

pKd	Binder
below the threshold	B1
4.51	B2

target: DLG4_3, P78352; experiment: holdup assay; set-up: key: below the threshold = too weak to quantify, mostly under pKd 3.1 to 4; conditions: plain residues with an end cap or a label only (N-terminal biotin on a linker: ado-ado)
Sequence (P78352 306-403): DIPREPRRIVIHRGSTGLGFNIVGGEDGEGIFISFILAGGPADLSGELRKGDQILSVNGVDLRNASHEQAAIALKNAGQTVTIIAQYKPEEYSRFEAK

pKd	Binder
below the threshold	B1
4.11	B2

target: T2, GRIP1_3, Q9Y3R0; experiment: holdup assay; set-up: key: below the threshold = too weak to quantify, mostly under pKd 3.1 to 4; conditions: plain residues with an end cap or a label only (N-terminal biotin on a linker: ado-ado)

pKd	Binder
below the threshold	B1
below the threshold	B2

target: SNX27, Q96L92; experiment: holdup assay; set-up: key: below the threshold = too weak to quantify, mostly under pKd 3.1 to 4; conditions: plain residues with an end cap or a label only (N-terminal biotin on a linker: ado-ado)

pKd	Binder
below the threshold	B1
5.55	B2

target: T3, GRIP1_5, Q9Y3R0; experiment: holdup assay; set-up: key: below the threshold = too weak to quantify, mostly under pKd 3.1 to 4; conditions: plain residues with an end cap or a label only (N-terminal biotin on a linker: ado-ado)

pKd	Binder
below the threshold	B1
below the threshold	B2

target: T4, SNTB1, Q13884; experiment: holdup assay; set-up: key: below the threshold = too weak to quantify, mostly under pKd 3.1 to 4; conditions: plain residues with an end cap or a label only (N-terminal biotin on a linker: ado-ado)

pKd	Binder
below the threshold	B1
4.88	B2

target: T5, RADIL, Q96JH8; experiment: holdup assay; set-up: key: below the threshold = too weak to quantify, mostly under pKd 3.1 to 4; conditions: plain residues with an end cap or a label only (N-terminal biotin on a linker: ado-ado)

pKd	Binder
4.82	B1
below the threshold	B2

target: T6, APBA2_2, Q99767; experiment: holdup assay; set-up: key: below the threshold = too weak to quantify, mostly under pKd 3.1 to 4; conditions: plain residues with an end cap or a label only (N-terminal biotin on a linker: ado-ado)

pKd	Binder
below the threshold	B1
below the threshold	B2

target: LNX1_2, Q8TBB1; experiment: holdup assay; set-up: key: below the threshold = too weak to quantify, mostly under pKd 3.1 to 4; conditions: plain residues with an end cap or a label only (N-terminal biotin on a linker: ado-ado)
Sequence (Q8TBB1 371-470): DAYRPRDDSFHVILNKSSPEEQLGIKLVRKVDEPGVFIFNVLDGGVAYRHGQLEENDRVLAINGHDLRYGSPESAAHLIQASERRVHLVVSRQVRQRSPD

pKd	Binder
4.51	B1
below the threshold	B2

target: MAGI1_2, Q96QZ7; experiment: holdup assay; set-up: key: below the threshold = too weak to quantify, mostly under pKd 3.1 to 4; conditions: plain residues with an end cap or a label only (N-terminal biotin on a linker: ado-ado)
Sequence (Q96QZ7 456-580): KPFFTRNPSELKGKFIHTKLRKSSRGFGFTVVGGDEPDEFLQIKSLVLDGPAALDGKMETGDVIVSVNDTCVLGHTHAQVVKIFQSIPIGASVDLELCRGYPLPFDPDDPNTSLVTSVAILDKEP

pKd	Binder
below the threshold	B1
3.76	B2

target: PICK1, Q9NRD5; experiment: holdup assay; set-up: key: below the threshold = too weak to quantify, mostly under pKd 3.1 to 4; conditions: plain residues with an end cap or a label only (N-terminal biotin on a linker: ado-ado)
Sequence (Q9NRD5 17-115): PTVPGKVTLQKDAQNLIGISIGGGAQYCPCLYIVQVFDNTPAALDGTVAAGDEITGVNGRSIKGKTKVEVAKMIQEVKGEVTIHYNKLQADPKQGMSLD

pKd	Binder
below the threshold	B1
4.18	B2

target: MAGI2_6, Q86UL8; experiment: holdup assay; set-up: key: below the threshold = too weak to quantify, mostly under pKd 3.1 to 4; conditions: plain residues with an end cap or a label only (N-terminal biotin on a linker: ado-ado)
Sequence (Q86UL8 1141-1229): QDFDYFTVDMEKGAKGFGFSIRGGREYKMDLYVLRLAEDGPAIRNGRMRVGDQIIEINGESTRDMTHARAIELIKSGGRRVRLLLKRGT

pKd	Binder
below the threshold	B1
4.16	B2

target: FRMPD3, Q5JV73; experiment: holdup assay; set-up: key: below the threshold = too weak to quantify, mostly under pKd 3.1 to 4; conditions: plain residues with an end cap or a label only (N-terminal biotin on a linker: ado-ado)
Sequence (Q5JV73 12-100): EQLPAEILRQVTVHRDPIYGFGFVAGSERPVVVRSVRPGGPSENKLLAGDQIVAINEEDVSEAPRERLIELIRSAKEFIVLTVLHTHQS

pKd	Binder
below the threshold	B1
3.5	B2

target: MAGI2_5, Q86UL8; experiment: holdup assay; set-up: key: below the threshold = too weak to quantify, mostly under pKd 3.1 to 4; conditions: plain residues with an end cap or a label only (N-terminal biotin on a linker: ado-ado)
Sequence (Q86UL8 915-1017): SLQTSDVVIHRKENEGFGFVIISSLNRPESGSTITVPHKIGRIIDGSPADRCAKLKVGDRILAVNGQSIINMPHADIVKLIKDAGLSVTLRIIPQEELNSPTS

pKd	Binder
below the threshold	B1
4.22	B2

target: T7, PDZRN3_1, Q9UPQ7; experiment: holdup assay; set-up: key: below the threshold = too weak to quantify, mostly under pKd 3.1 to 4; conditions: plain residues with an end cap or a label only (N-terminal biotin on a linker: ado-ado)

pKd	Binder
below the threshold	B1
5.2	B2

target: Inadl_1, Q8NI35; experiment: holdup assay; set-up: key: below the threshold = too weak to quantify, mostly under pKd 3.1 to 4; conditions: plain residues with an end cap or a label only (N-terminal biotin on a linker: ado-ado)
Sequence (Q8NI35 113-229): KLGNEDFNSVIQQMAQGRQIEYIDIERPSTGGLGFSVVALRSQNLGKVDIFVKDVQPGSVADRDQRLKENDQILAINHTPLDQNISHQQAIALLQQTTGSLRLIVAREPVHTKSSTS

pKd	Binder
3.69	B1
below the threshold	B2

target: GRIP2_4, Q9C0E4; experiment: holdup assay; set-up: key: below the threshold = too weak to quantify, mostly under pKd 3.1 to 4; conditions: plain residues with an end cap or a label only (N-terminal biotin on a linker: ado-ado)
Sequence (Q9C0E4 446-548): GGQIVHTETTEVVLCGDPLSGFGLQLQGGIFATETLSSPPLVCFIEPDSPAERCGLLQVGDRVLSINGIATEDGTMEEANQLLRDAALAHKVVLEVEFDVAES

pKd	Binder
below the threshold	B1
below the threshold	B2

target: DLG4_2, P78352; experiment: holdup assay; set-up: key: below the threshold = too weak to quantify, mostly under pKd 3.1 to 4; conditions: plain residues with an end cap or a label only (N-terminal biotin on a linker: ado-ado)
Sequence (P78352 155-259): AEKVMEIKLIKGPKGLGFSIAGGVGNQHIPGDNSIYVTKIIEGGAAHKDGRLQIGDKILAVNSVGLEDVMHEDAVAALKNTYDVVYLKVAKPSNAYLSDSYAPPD

pKd	Binder
3.78	B1
4.59	B2
